Test results reported in patent US20250281538A1 (US Dept. of Health and Human Services, published 2025).

T1: GPC2 antigen (UniProt Q8N158 24-553, limits assumed)
T1 construct: also called glypican-2
T1 sequence (looked up): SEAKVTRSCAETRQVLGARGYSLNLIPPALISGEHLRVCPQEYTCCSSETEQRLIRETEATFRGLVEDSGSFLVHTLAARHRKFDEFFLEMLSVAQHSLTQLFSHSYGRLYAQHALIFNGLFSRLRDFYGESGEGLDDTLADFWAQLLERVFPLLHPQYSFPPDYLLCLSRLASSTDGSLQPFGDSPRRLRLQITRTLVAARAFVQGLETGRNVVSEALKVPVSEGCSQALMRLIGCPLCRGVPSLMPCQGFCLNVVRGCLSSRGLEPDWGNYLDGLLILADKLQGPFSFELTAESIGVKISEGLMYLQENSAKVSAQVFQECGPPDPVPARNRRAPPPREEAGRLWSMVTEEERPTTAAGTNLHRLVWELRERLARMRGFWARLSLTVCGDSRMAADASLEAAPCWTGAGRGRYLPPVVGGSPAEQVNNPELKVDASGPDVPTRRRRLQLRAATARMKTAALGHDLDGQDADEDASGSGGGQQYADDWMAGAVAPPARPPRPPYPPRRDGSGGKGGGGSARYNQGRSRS


Key:
GPC2 antigen = target: T1, GPC2 antigen; assay: flow cytometry of Jurkat T cells expressing the construct, GPC2 binding read in the APC channel; GPC2 concentration not given
Excerpt: Shown in FIG. 12 is a flow cytometric analysis of Jurkat T cells expressing CT3 and hCT3 CARs (CT3-CD28HTM and hCT3-1 CD28HTM, respectively) and AbTCRs+CSRs (ART-CT3-CT3 and ART-hCT3-1-hCT3-1, respectively). T cells expressing each of the constructs were capable of binding to GPC2 antigen. Mock T cells not expressing a CAR or AbTCR+CSR were included as a negative control.

GPC3 protein [1] = target: GPC3 protein (UniProt P51654); assay: flow cytometry of Jurkat T cells expressing the construct, stained with 2.3ng/ml (0.04nM) GPC3-hFc
GPC3 protein [2] = target: GPC3 protein (UniProt P51654); assay: flow cytometry of Jurkat T cells expressing the construct, stained with 4.6ng/ml (0.08nM) GPC3-hFc

Binder | percent of cells in the GPC2-binding-positive gate (GPC2 antigen) [%] | percent of cells in the binding-positive gate (GPC3 protein [1]) [%] | percent of cells in the binding-positive gate (GPC3 protein [2]) [%]
CT3 CAR (CT3-CD28HTM) (other, Only the CT3 VH and VL are tied to the antibody) VH: EVQLQQSGPELVKPGASVKMSCKASRFTFTDYNIHWVKQSPGKTLEWIGYINPNNGDIFYKQKFNGKATLTINKSSNTAYMELRSLTSEDSAVYYCVRSSNIRYTFDRFFDVWGTGTTVTVSS VL: ENVLTQSPAIMSASLGEKVTMSCRASSSVNYIYWYQQKSDASPKLWIYYTSNLAPGVPARFSGSGSGNSYSLTISSMEGEDAATYYCQQFSSSPSTFGTGTKLELK | 41.9 |  | 
ART-hCT3-1-hCT3-1 AbTCR+CSR (other, also called ART-hCT3-hCT3; hCT3 AbTCR+CSR) chain 1: DVVMTQSPLSLPVTPGEPASISCRASSSVNYIYWYLQKPGQSPQLWIYYTSNLAPGVPDRFSGSGSGTDFTLKISRVEAEDVGVYYCQQFSSSPSTFGQGTKLEIKRSRGGGGSGGGGSGGGGSLEMAQVQLVQSGAEVKKPGASVKVSCKASRFTFTDYNIHWVRQAPGQGLEWIGYINPNNGDIFYKQKFNGRVTLTADKSTSTAYMELSSLTSEDTAVYYCVRSSNIRYTFDRFFDVWGQGTLVTVSSEQKLISEEDLAAATGAPPLGTQPDCNPTPENGEAPASTSPTQSLLVDSQASKTLPIPTSAPVALSSTGKPVLDAGPVLFWVILVLVVVVGSSAFLLCHRRACRKRIRQKLHLCYPVQTSQPKLELVDSRPRRSSTQLRSGASVTEPVAEERGLMSQPLMETCHSVGAAYLESLPLQDASPAGGPSSPRDLPEPRVSTEHTNNKIEKIYIMKADTVIVGTVKAELPEGRGLAGPAEPELEEELEADHTPHYPEQETEPPLGSCSDVMLSVEEEGKEDPLPTAASGK chain 2: QVQLVQSGAEVKKPGASVKVSCKASRFTFTDYNIHWVRQAPGQGLEWIGYINPNNGDIFYKQKFNGRVTLTADKSTSTAYMELSSLTSEDTAVYYCVRSSNIRYTFDRFFDVWGQGTLVTVSSASTKGPSVFPLAPSSKSTSGGTAALGCLVKDYFPEPVTVSWNSGALTSGVHTFPAVLQSSGLYSLSSVVTVPSSSLGTQTYICNVNHKPSNTKVDKRVEPKSCEVKTDSTDHVKPKETENTKQPSKSCHKPKAIVHTEKVNMMSLTVLGLRMLFAKTVAVNFLLTAKLFFL chain 3: DVVMTQSPLSLPVTPGEPASISCRASSSVNYIYWYLQKPGQSPQLWIYYTSNLAPGVPDRFSGSGSGTDFTLKISRVEAEDVGVYYCQQFSSSPSTFGQGTKLEIKRTVAAPSVFIFPPSDEQLKSGTASVVCLLNNFYPREAKVQWKVDNALQSGNSQESVTEQDSKDSTYSLSSTLTLSKADYEKHKVYACEVTHQGLSSPVTKSFNRGECPIKTDVITMDPKDNCSKDANDTLLLQLTNTSAYYMYLLLLLKSVVYFAIITCCLLRRTAFCCNGEKS | 62.4 |  | 
hCT3 CAR (hCT3-1 CD28HTM) (other, only hCT3-1 VH and VL are tied to the antibody; also called hCT3-CD28HTM) VH: QVQLVQSGAEVKKPGASVKVSCKASRFTFTDYNIHWVRQAPGQGLEWIGYINPNNGDIFYKQKFNGRVTLTADKSTSTAYMELSSLTSEDTAVYYCVRSSNIRYTFDRFFDVWGQGTLVTVSS VL: DVVMTQSPLSLPVTPGEPASISCRASSSVNYIYWYLQKPGQSPQLWIYYTSNLAPGVPDRFSGSGSGTDFTLKISRVEAEDVGVYYCQQFSSSPSTFGQGTKLEIK | 26.5 |  | 
ART-CT3-CT3 AbTCR+CSR (other, AbTCR heterodimer and CSR are expressed together on one cell) chain 1: ENVLTQSPAIMSASLGEKVTMSCRASSSVNYIYWYQQKSDASPKLWIYYTSNLAPGVPARFSGSGSGNSYSLTISSMEGEDAATYYCQQFSSSPSTFGTGTKLELKRSRGGGGSGGGGSGGGGSLEMAEVQLQQSGPELVKPGASVKMSCKASRFTFTDYNIHWVKQSPGKTLEWIGYINPNNGDIFYKQKFNGKATLTINKSSNTAYMELRSLTSEDSAVYYCVRSSNIRYTFDRFFDVWGTGTTVTVSSEQKLISEEDLAAATGAPPLGTQPDCNPTPENGEAPASTSPTQSLLVDSQASKTLPIPTSAPVALSSTGKPVLDAGPVLFWVILVLVVVVGSSAFLLCHRRACRKRIRQKLHLCYPVQTSQPKLELVDSRPRRSSTQLRSGASVTEPVAEERGLMSQPLMETCHSVGAAYLESLPLQDASPAGGPSSPRDLPEPRVSTEHTNNKIEKIYIMKADTVIVGTVKAELPEGRGLAGPAEPELEEELEADHTPHYPEQETEPPLGSCSDVMLSVEEEGKEDPLPTAASGK chain 2: EVQLQQSGPELVKPGASVKMSCKASRFTFTDYNIHWVKQSPGKTLEWIGYINPNNGDIFYKQKFNGKATLTINKSSNTAYMELRSLTSEDSAVYYCVRSSNIRYTFDRFFDVWGTGTTVTVSSASTKGPSVFPLAPSSKSTSGGTAALGCLVKDYFPEPVTVSWNSGALTSGVHTFPAVLQSSGLYSLSSVVTVPSSSLGTQTYICNVNHKPSNTKVDKRVEPKSCEVKTDSTDHVKPKETENTKQPSKSCHKPKAIVHTEKVNMMSLTVLGLRMLFAKTVAVNFLLTAKLFFL chain 3: ENVLTQSPAIMSASLGEKVTMSCRASSSVNYIYWYQQKSDASPKLWIYYTSNLAPGVPARFSGSGSGNSYSLTISSMEGEDAATYYCQQFSSSPSTFGTGTKLELKRTVAAPSVFIFPPSDEQLKSGTASVVCLLNNFYPREAKVQWKVDNALQSGNSQESVTEQDSKDSTYSLSSTLTLSKADYEKHKVYACEVTHQGLSSPVTKSFNRGECPIKTDVITMDPKDNCSKDANDTLLLQLTNTSAYYMYLLLLLKSVVYFAIITCCLLRRTAFCCNGEKS | 57.3 |  | 
ART-HN3-HN3 AbTCR+CSR (protein) chain 1: QVQLVQSGGGLVQPGGSLRLSCAASYFDFDSYEMSWVRQAPGKGLEWIGSIYHSGSTYYNPSLKSRVTISRDNSKNTLYLQMNTLRAEDTATYYCARVNMDRFDYWGQGTLVTVSSEQKLISEEDLAAATGAPPLGTQPDCNPTPENGEAPASTSPTQSLLVDSQASKTLPIPTSAPVALSSTGKPVLDAGPVLFWVILVLVVVVGSSAFLLCHRRACRKRIRQKLHLCYPVQTSQPKLELVDSRPRRSSTQLRSGASVTEPVAEERGLMSQPLMETCHSVGAAYLESLPLQDASPAGGPSSPRDLPEPRVSTEHTNNKIEKIYIMKADTVIVGTVKAELPEGRGLAGPAEPELEEELEADHTPHYPEQETEPPLGSCSDVMLSVEEEGKEDPLPTAASGK chain 2: QVQLVQSGGGLVQPGGSLRLSCAASYFDFDSYEMSWVRQAPGKGLEWIGSIYHSGSTYYNPSLKSRVTISRDNSKNTLYLQMNTLRAEDTATYYCARVNMDRFDYWGQGTLVTVSSASTKGPSVFPLAPSSKSTSGGTAALGCLVKDYFPEPVTVSWNSGALTSGVHTFPAVLQSSGLYSLSSVVTVPSSSLGTQTYICNVNHKPSNTKVDKRVEPKSCEVKTDSTDHVKPKETENTKQPSKSCHKPKAIVHTEKVNMMSLTVLGLRMLFAKTVAVNFLLTAKLFFL chain 3: QVQLVQSGGGLVQPGGSLRLSCAASYFDFDSYEMSWVRQAPGKGLEWIGSIYHSGSTYYNPSLKSRVTISRDNSKNTLYLQMNTLRAEDTATYYCARVNMDRFDYWGQGTLVTVSSRTVAAPSVFIFPPSDEQLKSGTASVVCLLNNFYPREAKVQWKVDNALQSGNSQESVTEQDSKDSTYSLSSTLTLSKADYEKHKVYACEVTHQGLSSPVTKSFNRGECPIKTDVITMDPKDNCSKDANDTLLLQLTNTSAYYMYLLLLLKSVVYFAIITCCLLRRTAFCCNGEKS |  | 56.9 | 70.6
